In patent US20190000928A1:
Positions of bridges follow the written chain, without caps; N, C: chain ends. Non-standard residues stand in square brackets, D forms with d. No end group written: not given here. L5 = not defined here; L6 = not defined here

B1: mTA 7: GLP-2 (G) and L6 (peptide)
chain: HGDGSFSDEMKTILDNLKARDFINWLIQTKITD
modifications: linker 11-18 via L6; reading uncertain; also: fatty acid attached to the staple, identity not given here
B2: mTA 6: GLP-1/Glucagon (D) and L5 (peptide)
chain: H[dS]QGTFTSDYSKYLDEKAAKEFIKWLLNGGPSSGAPPPS
modifications: linker 17-24 via L5; reading uncertain; also: fatty acid attached to the staple, identity not given here, printed as HsQGTFTSDYSKYLDEXAAKEFIXWLLNGGPSSGAPPPS

How the values were obtained:
Experiment in all cases: cell-based or functional assay
[1] = biological target: human glucagon-like peptide 2 receptor (GLP-2R) (human) (UniProt O95838)
[2] = biological target: human glucagon receptor (GCGR) (human) (UniProt P47871)
[3] = biological target: human glucagon-like peptide 1 receptor (GLP-1R) (human) (UniProt P43220)
Sequence of human glucagon-like peptide 1 receptor (GLP-1R) (human) (P43220 24-463): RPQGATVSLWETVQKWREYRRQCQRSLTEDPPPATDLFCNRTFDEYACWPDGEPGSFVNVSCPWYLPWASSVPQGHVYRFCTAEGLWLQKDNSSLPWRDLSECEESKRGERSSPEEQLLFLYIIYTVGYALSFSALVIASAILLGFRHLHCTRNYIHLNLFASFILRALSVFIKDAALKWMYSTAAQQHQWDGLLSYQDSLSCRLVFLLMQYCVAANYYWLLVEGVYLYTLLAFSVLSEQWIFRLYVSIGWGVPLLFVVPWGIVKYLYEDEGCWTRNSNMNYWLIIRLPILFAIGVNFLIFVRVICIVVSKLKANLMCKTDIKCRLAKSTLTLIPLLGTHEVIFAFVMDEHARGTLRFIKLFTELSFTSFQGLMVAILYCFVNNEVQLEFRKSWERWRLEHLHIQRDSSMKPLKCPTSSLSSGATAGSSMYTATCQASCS

Sequence of human glucagon-like peptide 2 receptor (GLP-2R) (human) (O95838 whole entry): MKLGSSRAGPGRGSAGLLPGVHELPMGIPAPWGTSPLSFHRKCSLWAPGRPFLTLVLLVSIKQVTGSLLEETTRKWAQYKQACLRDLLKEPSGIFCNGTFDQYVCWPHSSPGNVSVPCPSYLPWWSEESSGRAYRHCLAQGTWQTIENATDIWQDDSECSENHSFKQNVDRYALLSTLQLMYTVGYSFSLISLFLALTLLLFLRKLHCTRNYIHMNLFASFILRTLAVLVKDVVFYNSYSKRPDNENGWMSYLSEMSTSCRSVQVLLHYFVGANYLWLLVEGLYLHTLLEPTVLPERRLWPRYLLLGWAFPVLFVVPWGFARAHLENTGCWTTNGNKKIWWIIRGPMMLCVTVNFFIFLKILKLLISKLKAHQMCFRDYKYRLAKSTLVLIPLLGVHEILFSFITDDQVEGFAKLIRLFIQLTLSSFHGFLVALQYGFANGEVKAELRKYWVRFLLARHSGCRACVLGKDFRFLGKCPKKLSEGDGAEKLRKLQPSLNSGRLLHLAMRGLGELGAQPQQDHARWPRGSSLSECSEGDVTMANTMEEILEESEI
Sequence of human glucagon receptor (GCGR) (human) (P47871 26-477): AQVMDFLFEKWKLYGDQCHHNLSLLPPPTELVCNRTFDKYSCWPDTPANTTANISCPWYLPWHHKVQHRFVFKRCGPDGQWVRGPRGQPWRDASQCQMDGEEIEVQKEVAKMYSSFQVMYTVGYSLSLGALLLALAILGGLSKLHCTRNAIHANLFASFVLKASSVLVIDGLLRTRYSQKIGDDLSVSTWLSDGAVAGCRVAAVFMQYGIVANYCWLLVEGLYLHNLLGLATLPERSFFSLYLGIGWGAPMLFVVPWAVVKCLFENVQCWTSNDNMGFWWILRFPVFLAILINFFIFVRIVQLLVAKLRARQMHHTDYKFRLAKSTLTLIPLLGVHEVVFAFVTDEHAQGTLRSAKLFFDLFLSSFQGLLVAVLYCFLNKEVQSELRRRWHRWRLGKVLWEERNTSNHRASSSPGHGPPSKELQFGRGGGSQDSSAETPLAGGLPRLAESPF

| Binder | GLP-2R (EC50, nM); CRE luciferase reporter in HEK293-GLP-2R-CRE cells [1] [nM] | GCGR (EC50, nM); CRE luciferase reporter in HEK293-GCGR-CRE cells [2] [nM] | GLP-1R (EC50, nM); CRE luciferase reporter in HEK293-GLP-1R-CRE cells [3] [nM] |
| --- | --- | --- | --- |
| B1 | 0.068 |  |  |
| B2 |  | 0.62 | 0.03 |
